Reference: patent publication US20130156779A1 (GlaxoSmithKline, published 2013)
Positions count from the first letter of the chain named.

Molecular target: T1, Full-length human HER3 extracellular domain (ECD) (human, UniProt P21860 20-643)
T1 construct: also called human HER3 ECD; HER-3 ECD full length
Assay: BIACORE 3000 SPR, mAb captured by anti-human Fc, ECD as analyte, 25 C
Experimental: The binding kinetics of these antibodies for was assessed using a BIACORE™ 3000. Antibodies were captured on a CM5 biosensor chip to which an immobilized anti-human IgG (Fc specific) BIACORE™ (GE Healthcare cat# BR-1008-39) monoclonal antibody had been conjugated using supplied coupling buffer (9000 RU). Full-length human HER3 ECD concentrations were injected for 120s at a flow rate of 30 ul/min. Biosensor chips were regenerated as described in Example 1. Kinetics were determined by global fitting of data to the 1:1 Langmuir model using BIACORE™ Evaluation software. Analytical runs were carried out at 25° C. using FIBS-EP as the running buffer.
Buffer cycle and double referencing were performed as described in Example 1; and 5) Regenerate biosensor chips with BIACORE™ optimized buffers.

T1 sequence (P21860 20-643): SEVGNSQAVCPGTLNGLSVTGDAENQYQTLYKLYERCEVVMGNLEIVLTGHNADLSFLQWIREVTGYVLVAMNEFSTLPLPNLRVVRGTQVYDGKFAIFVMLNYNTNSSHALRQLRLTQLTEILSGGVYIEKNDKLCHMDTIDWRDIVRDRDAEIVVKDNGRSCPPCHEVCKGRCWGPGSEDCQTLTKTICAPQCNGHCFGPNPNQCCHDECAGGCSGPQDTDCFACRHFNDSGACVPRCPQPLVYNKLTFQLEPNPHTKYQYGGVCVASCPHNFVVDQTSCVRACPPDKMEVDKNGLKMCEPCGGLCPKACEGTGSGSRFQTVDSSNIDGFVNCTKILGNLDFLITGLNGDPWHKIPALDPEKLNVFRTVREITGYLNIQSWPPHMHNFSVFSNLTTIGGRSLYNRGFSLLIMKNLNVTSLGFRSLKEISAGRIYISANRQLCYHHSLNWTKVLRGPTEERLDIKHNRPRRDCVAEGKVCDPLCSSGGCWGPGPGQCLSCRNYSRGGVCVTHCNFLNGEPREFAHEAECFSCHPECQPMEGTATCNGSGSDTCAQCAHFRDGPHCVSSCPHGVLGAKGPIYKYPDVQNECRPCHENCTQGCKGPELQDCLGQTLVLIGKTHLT

B1: 1D9 H6L0 RR antibody (antibody, V domains shown)
VH: QVQLVQSGAEVKKPGASVKVSCKASGYTFTSYWMHWVRQAPGQGLEWMGVIDPSDGYSHYNQKFKGKVTLTVDTSISTAYMELSRLRSDDTAVYYCAGGLAGTLDYWGQGTTVTVSS
VL: DIQMTQSPSSLSASVGDRVTITCRSSQSIVHSSGNTYLQWYQQKPGKAPKLLIYKVSNRFSGVPSRFSGSGSGTDFTLTISSLQPEDFAVYYCFQGSHVPWTFGQGTKLEIKR
notes: Humanized RR variant
  Kd: 7.51 nM
  koff: 0.00366 s⁻¹
  kon: 487000 M⁻¹ s⁻¹

B2: 1D9 H2L2 RR antibody (antibody, V domains shown)
VH: B1 VH with K67R, L70M, V72R
VL: B1 VL with Y41F
notes: Humanized RR variant
  Kd: 13.4 nM
  koff: 0.00444 s⁻¹
  kon: 331000 M⁻¹ s⁻¹

B3: 1D9 H3L2 RR antibody (antibody, V domains shown)
VH: B1 VH with L70M, V72R, G98R
VL: B1 VL with Y41F
notes: Humanized RR variant
  Kd: 59.4 nM
  koff: 0.00316 s⁻¹
  kon: 53300 M⁻¹ s⁻¹

B4: 1D9 H6L3 RR antibody (antibody, V domains shown)
VH: B1 VH
VL: B1 VL with I2V
notes: Humanized RR variant
  Kd: 3.91 nM
  koff: 0.00302 s⁻¹
  kon: 773000 M⁻¹ s⁻¹

B5: 1D9 H6L5 RR antibody (antibody, V domains shown)
VH: B1 VH
VL: B1 VL with I2V, Q3L, Y41F, Y54S
notes: also called 1D9 116L5 RR antibody
  Kd: 6.87 nM
  koff: 0.00371 s⁻¹
  kon: 540000 M⁻¹ s⁻¹

B6: 1D9 H6L4 RR antibody (antibody, V domains shown)
VH: B1 VH
VL: B1 VL with Q3L
  Kd: 7.89 nM
  koff: 0.0041 s⁻¹
  kon: 519000 M⁻¹ s⁻¹

B7: 15D5 H3L1 antibody (antibody, V domains shown)
VH: QVQLVQSGAEVKKPGASVKVSCKASGYTFTDYNMNWVRQAPGQGLEWMGGINPNYGTTVYNQKFKGKATLTVDQSISTAYMELSRLRSDDTAVYYCARMTTIVPFDYWGQGTTVTVSS
VL: DIQMTQSPSSLSASVGDRVTITCRASQDISNYLNWYQQKPGKAPKLLIYYTSTLHSGVPSRFSGSGSGTDYTFTISSLQPEDIATYYCQQGYTLPWTFGGGTKVEIKR
notes: Humanized 15D5 variant
  Kd: 4.21 nM
  koff: 0.000171 s⁻¹
  kon: 40500 M⁻¹ s⁻¹

B8: 15D5 H1L1 antibody (antibody, V domains shown)
VH: B7 VH with V2F, T28S, R38K, M48I
VL: B7 VL
  Kd: 7.19 nM
  koff: 0.000267 s⁻¹
  kon: 37100 M⁻¹ s⁻¹

B9: 15D5 H2L2 antibody (antibody, V domains shown)
VH: B7 VH with R38K, M48I
VL: B7 VL with F73L, I83F, G100Q, V104L
notes: Humanized 15D5 variant
  Kd: 12.8 nM
  koff: 0.00407 s⁻¹
  kon: 317000 M⁻¹ s⁻¹

B10: 15D5 H2L1 antibody (antibody, V domains shown)
VH: B7 VH with R38K, M48I
VL: B7 VL
notes: Humanized 15D5 variant
  Kd: 8.7 nM
  koff: 0.000365 s⁻¹
  kon: 41900 M⁻¹ s⁻¹

B11: 15D5 H1L3 antibody (antibody, V domains shown)
VH: B7 VH with V2F, T28S, R38K, M48I
VL: B7 VL with Y71F, F73L, I83F, G100Q, V104L
notes: Humanized 15D5 variant; also called 15D5 HIL3 antibody
  Kd: 10 nM
  koff: 0.000345 s⁻¹
  kon: 34400 M⁻¹ s⁻¹

B12: 15D5 H3L3 antibody (antibody, V domains shown)
VH: B7 VH
VL: B7 VL with Y71F, F73L, I83F, G100Q, V104L
notes: also called 15D5 H31.3 antibody
  Kd: 8.72 nM
  koff: 0.000367 s⁻¹
  kon: 42100 M⁻¹ s⁻¹

B13: 15D5 H4L3 (antibody, V domains shown)
VH: B7 VH with A68V, Q74T
VL: B7 VL with Y71F, F73L, I83F, G100Q, V104L
notes: To be rechecked
  Kd: 24.7 nM
  koff: 0.000935 s⁻¹
  kon: 37900 M⁻¹ s⁻¹
